# Measurements published in patent publication US20090035321A1, “Intercellular adhesion molecules and their binding ligands” (Boehringer Ingelheim Pharmaceuticals, Inc., published 2009).
# How the values were obtained:
# [1] = target: ICAM-1 A115N/SV (printed A155N/SV at paragraph 410) (human) (UniProt P05362); experiment: flow, COS cells
# [2] = target: T1, ICAM-1 Q1T/KA (human, UniProt P05362); experiment: flow, COS cells
# [3] = target: ICAM-1 Q1/K (human, UniProt P05362); experiment: flow, COS cells
# [4] = target: ICAM-1 R13G/EA (human, UniProt P05362); experiment: flow, COS cells
# [5] = target: ICAM-1 R13/Q (human, UniProt P05362); experiment: flow, COS cells
# [6] = target: ICAM-1 G46NN/ASI (human, UniProt P05362); experiment: flow, COS cells
# [7] = target: ICAM-1 N56V/HM (human, UniProt P05362); experiment: flow, COS cells
# [8] = target: T2, ICAM-1 E59/K (human, UniProt P05362); experiment: flow, COS cells
# [9] = target: ICAM-1 D60/K (human, UniProt P05362); experiment: flow, COS cells
# [10] = target: ICAM-1 S61/I (human, UniProt P05362); experiment: flow, COS cells
# [11] = target: T3, ICAM-1 N68/K (human, UniProt P05362); experiment: flow, COS cells
# [12] = target: ICAM-1 D71GQS/NGEL (human, UniProt P05362); experiment: flow, COS cells
# [13] = target: ICAM-1 Q73/T (human, UniProt P05362); experiment: flow, COS cells
# [14] = target: ICAM-1 T75/A (human, UniProt P05362); experiment: flow, COS cells
# [15] = target: ICAM-1 K77T/ES (human, UniProt P05362); experiment: flow, COS cells
# [16] = target: ICAM-1 L91/A (human, UniProt P05362); experiment: flow, COS cells
# [17] = target: ICAM-1 N103/K (human, UniProt P05362); experiment: flow, COS cells
# [18] = target: T4, ICAM-1 E111GGA/KAGS (human, UniProt P05362); experiment: flow, COS cells
# [19] = target: ICAM-1 R125/E (human, UniProt P05362); experiment: flow, COS cells
# [20] = target: ICAM-1 E127/R (human, UniProt P05362); experiment: flow, COS cells
# [21] = target: ICAM-1 V136GE/GVK (human, UniProt P05362); experiment: flow, COS cells
# [22] = target: ICAM-1 H152HGA/EEGS (human, UniProt P05362); experiment: flow, COS cells
# [23] = target: ICAM-1 N175/A (human, UniProt P05362); experiment: flow, COS cells
# [24] = target: ICAM-1 A189T/SI (human, UniProt P05362); experiment: flow, COS cells
# [25] = target: ICAM-1 D203TQ/TAD (human, UniProt P05362); experiment: flow, COS cells
# [26] = target: ICAM-1 D213GL/HGV (human, UniProt P05362); experiment: flow, COS cells
# [27] = target: ICAM-1 N240DS/KNA (human, UniProt P05362); experiment: 35S-HRV14 on COS cells
# Protocol: (§1) COS cells were seeded into 10 cm tissue culture plates such that they would be 50% confluent by 16-24 hrs. COS cells were then washed once with TBS and incubated for 4 hrs with 4 ml RPMI containing 10% Nu sera (Collaborative) 5 pg/ml chloroquine, 3 μg of mutant plasmid and 200 μg/ml DEAE-dextran sulfate. Cells were then washed with 10% DMSO/PBS followed by PBS and cultured 16 hrs in culture media. Culture media was replaced with fresh media and at 48 hrs post transfection (OS cells were suspended by trypsin/EDTA (Gibco) treatment and divided into 2, 10 cm plates as well as 24 well tissue culture plates for HRV binding. At 72 hrs cells were harvested from 10 cm plates with 5 mM EDTA/HBSS and processed for adhesion to LFA-1 coated plastic and immunofluorescence.
# (§2) Binding occurred in 1 hr at 35° C. in a 5% CO₂ atmosphere with horizontal rotation (100 rpm). Unbound [³⁵S] HRV14 was aspirated, COS cells were gently washed with 150 ml of HRV buffer and then solubilized with 1% SDS in PBS for scintillation counting.
# (§3) In Table 25, the notation for the mutations uses the one-letter code for the wild-type sequence followed by a slash and the one-letter code for the corresponding mutant sequence. The position of the first amino acid within the sequence is indicated. Wild type residues precede the slash followed by the residues they were substituted for in the mutant. COS cells expressing ICAM-1 mutants were tested for adherence to LFA-1 coated plastic and for binding 35S met-labeled HRV14. […] Binding is presented as mean and standard error (SE) for multiple experiments (n). […] The specific linear fluorescence intensity (SLFI) of CL203 for each mutant is normalized to that of wild type CL203 SLFI (% WT) as discussed above. The SLFI of RR1/1, R6.5 and LB-2 SLFI is normalized to the CL203 SLFI of the mutant (% CL203) as described above.
# [28] = target: T1, ICAM-1 Q1T/KA; experiment: 35S-HRV14 on COS cells
# Protocol: as §1, §2, §3
# [29] = target: ICAM-1 S24/A (human, UniProt P05362); experiment: 35S-HRV14 on COS cells
# Protocol: as §1, §2, §3
# [30] = target: T2, ICAM-1 E59/K; experiment: 35S-HRV14 on COS cells
# Protocol: as §1, §2, §3
# [31] = target: ICAM-1 D60S/KL (human, UniProt P05362); experiment: 35S-HRV14 on COS cells
# Protocol: as §1, §2, §3
# [32] = target: T3, ICAM-1 N68/K; experiment: 35S-HRV14 on COS cells
# Protocol: as §1, §2, §3
# [33] = target: T4, ICAM-1 E111GGA/KAGS; experiment: 35S-HRV14 on COS cells
# Protocol: as §1, §2, §3
# [34] = target: ICAM-1 K128/R (human, UniProt P05362); experiment: 35S-HRV14 on COS cells
# Protocol: as §1, §2, §3
# [35] = target: ICAM-1 A178/G (human, UniProt P05362); experiment: 35S-HRV14 on COS cells
# Protocol: as §1, §2, §3
molecule,measurement,setting,value
monoclonal antibody CL203,SLFI % WT,[1],60 % WT
same,SLFI % WT,[2],230 % WT
same,SLFI % WT,[3],168 % WT
same,SLFI % WT,[4],132 % WT
same,SLFI % WT,[5],161 % WT
same,SLFI % WT,[6],151 % WT
same,SLFI % WT,[7],121 % WT
same,SLFI % WT,[8],130 % WT
same,SLFI % WT,[9],89 % WT
same,SLFI % WT,[10],140 % WT
same,SLFI % WT,[11],153 % WT
same,SLFI % WT,[12],161 % WT
same,SLFI % WT,[13],218 % WT
same,SLFI % WT,[14],153 % WT
same,SLFI % WT,[15],151 % WT
same,SLFI % WT,[16],15 % WT
same,SLFI % WT,[17],91 % WT
same,SLFI % WT,[18],122 % WT
same,SLFI % WT,[19],145 % WT
same,SLFI % WT,[20],191 % WT
same,SLFI % WT,[21],171 % WT
same,SLFI % WT,[22],94 % WT
same,SLFI % WT,[23],80 % WT
same,SLFI % WT,[24],138 % WT
same,SLFI % WT,[25],125 % WT
same,SLFI % WT,[26],128 % WT
"human rhinovirus 14 (HRV14) (other, [35S]-Met labeled) GAQVSTQKSGSHENQNILTNGSNQTFTVINYYKDAASTSSAGQSLSMDPSKFTEPVKDLMLKGAPALNSPNVEACGYSDRVQQITLGNSTITTQEAANAVVCYAEWPEYLPDVDASDVNKTSKPDTSVCRFYTLDSKTWTTGSKGWCWKLPDALKDMGVFGQNMFFHSLGRSGYTVHVQCNATKFHSGCLLVVVIPEHQLASHEGGNVSVKYTFTHPGERGIDLSSANEVGGPVKDVIYNMNGTLLGNLLIFPHQFINLRTNNTATIVIPYINSVPIDSMTRHNNVSLMVIPIAPLTVPTGATPSLPITVTIAPMCTEFSGIRSKSIVPQGLPTTTLPGSGQFLTTDDRQSPSALPNYEPTPRIHIPGKVHNLLEIIQVDTLIPMNNTHTKDEVNSYLIPLNANRQNEQVFGTNLFIGDGVFKTTLLGEIVQYYTHWSGSLRFSLMYTGPALSSAKLILAYTPPGARGPQDRREAMLGTHVVWDIGLQSTIVMTIPWTSGVQFRYTDPDTYTSAGFLSCWYQTSLILPPETTGQVYLLSFISACPDFKLRLMKDTQTISQTVALTEGLGDELEEVIVEKTKQTVASISSGPKHTQKVPILTANETGATMPVLPSDSIETRTTYMHFNGSETDVECFLGRAACVHVTEIQNKDATGIDNHREAKLFNDWKINLSSLVQLRKKLELFTYVRFDSEYTILATASQPDSANYSSNLVVQAMYVPPGAPNPKEWDDYTWQSASNPSVFFKVGDTSRFSVPYVGLASAYNCFYDGYSHDDAETQYGITVLNHMGSMAFRIVNEHDEHKTLVKIRVYHRAKHVEAWIPRAPRALPYTSIGRTNYPKNTEPVIKKRKGDIKSY",HRV Binding %,[27],82 % of wild type
same,HRV Binding %,[28],11 % of wild type
same,HRV Binding %,[29],99 % of wild type
same,HRV Binding %,[30],105 % of wild type
same,HRV Binding %,[31],1 % of wild type
same,HRV Binding %,[32],137 % of wild type
same,HRV Binding %,[33],162 % of wild type
same,HRV Binding %,[34],137 % of wild type
same,HRV Binding %,[35],102 % of wild type
